Assay results as given in paper PMC12102759 (2025).

B1: RNF115 peptide 69-84 (E3 ubiquitin-protein ligase RNF115), 16-mer library wild type / MDM2 SWIB (MDM2 SWIB/MDM2 domain, residues 17-125) (parent complex)
chain 1: THFAELWGHLDHTMFF
chain 2: SQIPASEQETLVRPKPLLLKLLKSVGAQKDTYTMKEVLFYLGQYIMTKRLYDEKQQHIVYCSNDLLGDLFGVPSFSVKEHRKIYTMIYRNLVVVNQQESSDSGTSVSEN
B2: MXI1 peptide 6-21 (Max-interacting protein 1), 16-mer library wild type / SIN3A PAH2 (SIN3A PAH domain, residues 295-383) (parent complex)
chain 1: MINVQRLLEAAEFLER
chain 2: SLQNNQPVEFNHAINYVNKIKNRFQGQPDIYKAFLEILHTYQKEQRNAKEAGGNYTPALTEQEVYAQVARLFKNQEDLLSEFGQFLPDA

Variants of: B1
Assay: proteomic peptide phage display deep mutational scan (ProP-PD DMS): M13 P8 16-mer library selected against immobilised GST-tagged bait for four days (rounds), NGS of the eluted pools per day and pseudo-replica; bait immobilised on MaxiSorp plates (10 µg), library pre-cleared on GST, 2 h binding at 4 °C, five washes; one round per day, days 1-4; value from days 2 and 3

Compared with chain 1 M14L, chain 1 M14V is higher in screen value: 0.000799 average fractional NGS count over selection days 2 and 3 (reads of this peptide / all reads for the bait, averaged over … for the first, 0.00137 average fractional NGS count over selection days 2 and 3 (reads of this peptide / all reads for the bait, averaged over … for the second.

First: chain 1 M14A
Second: chain 1 M14G
The screen value of the first is higher: 0.00114 average fractional NGS count over selection days 2 and 3 (reads of this peptide / all reads for the bait, averaged over … for the first, 0.000223 average fractional NGS count over selection days 2 and 3 (reads of this peptide / all reads for the bait, averaged over … for the second.

First: chain 1 M14T
Second: chain 1 A4L
The screen value of the first is higher: 0.00238 average fractional NGS count over selection days 2 and 3 (reads of this peptide / all reads for the bait, averaged over … for the first, 0.000327 average fractional NGS count over selection days 2 and 3 (reads of this peptide / all reads for the bait, averaged over … for the second.

First: chain 1 A4N
Second: chain 1 A4G
The screen value of the first is higher: 0.000396 average fractional NGS count over selection days 2 and 3 (reads of this peptide / all reads for the bait, averaged over … for the first, 0.000193 average fractional NGS count over selection days 2 and 3 (reads of this peptide / all reads for the bait, averaged over … for the second.

Compared with chain 1 A4Q, chain 1 A4Y is lower in screen value: 0.000494 average fractional NGS count over selection days 2 and 3 (reads of this peptide / all reads for the bait, averaged over … for the first, 0.000442 average fractional NGS count over selection days 2 and 3 (reads of this peptide / all reads for the bait, averaged over … for the second.

Compared with chain 1 A4D, chain 1 T13K is lower in screen value: 0.000369 average fractional NGS count over selection days 2 and 3 (reads of this peptide / all reads for the bait, averaged over … for the first, 0.000352 average fractional NGS count over selection days 2 and 3 (reads of this peptide / all reads for the bait, averaged over … for the second.

First: chain 1 T13S
Second: chain 1 T13N
The screen value of the first is higher: 0.0255 average fractional NGS count over selection days 2 and 3 (reads of this peptide / all reads for the bait, averaged over … for the first, 0.00271 average fractional NGS count over selection days 2 and 3 (reads of this peptide / all reads for the bait, averaged over … for the second.

Going from chain 1 T13L to chain 1 T13I, the screen value falls from 0.00319 average fractional NGS count over selection days 2 and 3 (reads of this peptide / all reads for the bait, averaged over … to 0.00105 average fractional NGS count over selection days 2 and 3 (reads of this peptide / all reads for the bait, averaged over ….

First: chain 1 T1I
Second: chain 1 T1A
The screen value of the first is lower: 0.000116 average fractional NGS count over selection days 2 and 3 (reads of this peptide / all reads for the bait, averaged over … for the first, 0.00514 average fractional NGS count over selection days 2 and 3 (reads of this peptide / all reads for the bait, averaged over … for the second.

Compared with chain 1 T1N, chain 1 T1P is higher in screen value: 0.000471 average fractional NGS count over selection days 2 and 3 (reads of this peptide / all reads for the bait, averaged over … for the first, 0.00338 average fractional NGS count over selection days 2 and 3 (reads of this peptide / all reads for the bait, averaged over … for the second.

Going from chain 1 T1S to chain 1 T1Q, the screen value falls from 0.00105 average fractional NGS count over selection days 2 and 3 (reads of this peptide / all reads for the bait, averaged over … to 0.00081 average fractional NGS count over selection days 2 and 3 (reads of this peptide / all reads for the bait, averaged over ….

Going from chain 1 E5Q to chain 1 H2L, the screen value rises from 0.00197 average fractional NGS count over selection days 2 and 3 (reads of this peptide / all reads for the bait, averaged over … to 0.00441 average fractional NGS count over selection days 2 and 3 (reads of this peptide / all reads for the bait, averaged over ….

Going from chain 1 H2K to chain 1 H2P, the screen value rises from 0.000959 average fractional NGS count over selection days 2 and 3 (reads of this peptide / all reads for the bait, averaged over … to 0.00101 average fractional NGS count over selection days 2 and 3 (reads of this peptide / all reads for the bait, averaged over ….

Compared with chain 1 H2T, chain 1 G8E is higher in screen value: 0.00209 average fractional NGS count over selection days 2 and 3 (reads of this peptide / all reads for the bait, averaged over … for the first, 0.00632 average fractional NGS count over selection days 2 and 3 (reads of this peptide / all reads for the bait, averaged over … for the second.

First: chain 1 G8S
Second: chain 1 G8K
The screen value of the first is higher: 0.0101 average fractional NGS count over selection days 2 and 3 (reads of this peptide / all reads for the bait, averaged over … for the first, 0.000179 average fractional NGS count over selection days 2 and 3 (reads of this peptide / all reads for the bait, averaged over … for the second.

Compared with chain 1 F15G, chain 1 F15N is lower in screen value: 0.00105 average fractional NGS count over selection days 2 and 3 (reads of this peptide / all reads for the bait, averaged over … for the first, 0.000153 average fractional NGS count over selection days 2 and 3 (reads of this peptide / all reads for the bait, averaged over … for the second.

First: chain 1 F15I
Second: chain 1 F15V
The screen value of the first is lower: 0.00139 average fractional NGS count over selection days 2 and 3 (reads of this peptide / all reads for the bait, averaged over … for the first, 0.0496 average fractional NGS count over selection days 2 and 3 (reads of this peptide / all reads for the bait, averaged over … for the second.

Going from chain 1 F15T to chain 1 F15A, the screen value rises from 0.00702 average fractional NGS count over selection days 2 and 3 (reads of this peptide / all reads for the bait, averaged over … to 0.0214 average fractional NGS count over selection days 2 and 3 (reads of this peptide / all reads for the bait, averaged over ….

Compared with chain 1 D11N, chain 1 D11G is lower in screen value: 0.00248 average fractional NGS count over selection days 2 and 3 (reads of this peptide / all reads for the bait, averaged over … for the first, 0.000731 average fractional NGS count over selection days 2 and 3 (reads of this peptide / all reads for the bait, averaged over … for the second.

Going from chain 1 D11K to chain 1 D11I, the screen value rises from 0.000112 average fractional NGS count over selection days 2 and 3 (reads of this peptide / all reads for the bait, averaged over … to 0.000389 average fractional NGS count over selection days 2 and 3 (reads of this peptide / all reads for the bait, averaged over ….

First: chain 1 D11F
Second: chain 1 D11R
The screen value of the first is lower: 8.75e-05 average fractional NGS count over selection days 2 and 3 (reads of this peptide / all reads for the bait, averaged over … for the first, 0.000139 average fractional NGS count over selection days 2 and 3 (reads of this peptide / all reads for the bait, averaged over … for the second.

First: chain 1 L6I
Second: chain 1 L6W
The screen value of the first is lower: 0.000313 average fractional NGS count over selection days 2 and 3 (reads of this peptide / all reads for the bait, averaged over … for the first, 0.000846 average fractional NGS count over selection days 2 and 3 (reads of this peptide / all reads for the bait, averaged over … for the second.

Going from chain 1 L6Y to chain 1 L6Q, the screen value falls from 0.00417 average fractional NGS count over selection days 2 and 3 (reads of this peptide / all reads for the bait, averaged over … to 0.000157 average fractional NGS count over selection days 2 and 3 (reads of this peptide / all reads for the bait, averaged over ….

First: chain 1 L6H
Second: chain 1 H9W
The screen value of the first is higher: 0.00174 average fractional NGS count over selection days 2 and 3 (reads of this peptide / all reads for the bait, averaged over … for the first, 0.000883 average fractional NGS count over selection days 2 and 3 (reads of this peptide / all reads for the bait, averaged over … for the second.

Compared with chain 1 H9M, chain 1 H9Q is lower in screen value: 0.00238 average fractional NGS count over selection days 2 and 3 (reads of this peptide / all reads for the bait, averaged over … for the first, 0.00185 average fractional NGS count over selection days 2 and 3 (reads of this peptide / all reads for the bait, averaged over … for the second.

Compared with chain 1 H9Y, chain 1 H9D is higher in screen value: 0.000619 average fractional NGS count over selection days 2 and 3 (reads of this peptide / all reads for the bait, averaged over … for the first, 0.0019 average fractional NGS count over selection days 2 and 3 (reads of this peptide / all reads for the bait, averaged over … for the second.

Compared with chain 1 H12I, chain 1 H12A is higher in screen value: 0.000167 average fractional NGS count over selection days 2 and 3 (reads of this peptide / all reads for the bait, averaged over … for the first, 0.00464 average fractional NGS count over selection days 2 and 3 (reads of this peptide / all reads for the bait, averaged over … for the second.

For chain 1 H12K, the screen value was 0.00015 average fractional NGS count over selection days 2 and 3 (reads of this peptide / all reads for the bait, averaged over ….

Variants of: B2
Assay: as above

Compared with chain 1 MINVQRLIEAAEFLER [chain 1 L8I], chain 1 MNNVQRLLEAAEFLER [chain 1 I2N] is lower in screen value: 0.00287 average fractional NGS count over selection days 2 and 3 (reads of this peptide / all reads for the bait, averaged over … for the first, 0.00111 average fractional NGS count over selection days 2 and 3 (reads of this peptide / all reads for the bait, averaged over … for the second.

First: chain 1 MINVQRLLEAAYFLER [chain 1 E12Y]
Second: chain 1 GINVQRLLEAAEFLER [chain 1 M1G]
The screen value of the first is higher: 0.000478 average fractional NGS count over selection days 2 and 3 (reads of this peptide / all reads for the bait, averaged over … for the first, 0.000229 average fractional NGS count over selection days 2 and 3 (reads of this peptide / all reads for the bait, averaged over … for the second.

Compared with chain 1 VINVQRLLEAAEFLER [chain 1 M1V], chain 1 MINVQRLLAAAEFLER [chain 1 E9A] is lower in screen value: 0.000344 average fractional NGS count over selection days 2 and 3 (reads of this peptide / all reads for the bait, averaged over … for the first, 0.000182 average fractional NGS count over selection days 2 and 3 (reads of this peptide / all reads for the bait, averaged over … for the second.

First: chain 1 MINVQRLLNAAEFLER [chain 1 E9N]
Second: chain 1 MINVQRLLYAAEFLER [chain 1 E9Y]
The screen value of the first is higher: 0.0151 average fractional NGS count over selection days 2 and 3 (reads of this peptide / all reads for the bait, averaged over … for the first, 0.000223 average fractional NGS count over selection days 2 and 3 (reads of this peptide / all reads for the bait, averaged over … for the second.

First: chain 1 MINVQRLLEAAEFGER [chain 1 L14G]
Second: chain 1 MINVQRLLEAAEFPER [chain 1 L14P]
The screen value of the first is lower: 0.000436 average fractional NGS count over selection days 2 and 3 (reads of this peptide / all reads for the bait, averaged over … for the first, 0.0014 average fractional NGS count over selection days 2 and 3 (reads of this peptide / all reads for the bait, averaged over … for the second.

First: chain 1 MIYVQRLLEAAEFLER [chain 1 N3Y]
Second: chain 1 MINVQSLLEAAEFLER [chain 1 R6S]
The screen value of the first is higher: 0.000298 average fractional NGS count over selection days 2 and 3 (reads of this peptide / all reads for the bait, averaged over … for the first, 0.00011 average fractional NGS count over selection days 2 and 3 (reads of this peptide / all reads for the bait, averaged over … for the second.

Going from chain 1 MINVQHLLEAAEFLER [chain 1 R6H] to chain 1 MINVQRLLEAAEFLDR [chain 1 E15D], the screen value rises from 0.00034 average fractional NGS count over selection days 2 and 3 (reads of this peptide / all reads for the bait, averaged over … to 0.000913 average fractional NGS count over selection days 2 and 3 (reads of this peptide / all reads for the bait, averaged over ….

With chain 1 MINVQRLLEAAEFLGR [chain 1 E15G] the screen value was 0.00623 average fractional NGS count over selection days 2 and 3 (reads of this peptide / all reads for the bait, averaged over ….
